The values that follow come from the supplement of paper PMC5998384.

In data set [1] the test system is HeLa Kyoto. Briefly: thermal stability score vs G1/S (z-score of summed log2 fold changes over temperatures); higher = more thermally stable than in G1/S.
Data set [2] deals with HeLa Kyoto. Put plainly: solubility in G1/S (NP-40 vs SDS abundance) (log2 ratio); higher = more soluble. The note with it: cell cycle stage: G1/S.
The subject of data set [3] is HeLa Kyoto. Briefly: solubility change mitosis vs G1/S (difference of NP-40 vs SDS log2 ratios) (log2 ratio difference); higher = more soluble in mitosis.
Data set [4] deals with HeLa Kyoto. Put plainly: melting temperature (median over replicates), in situ; higher = more thermally stable.
The mark [5] stands for this setting: cell cycle stage: early G1 (4.5 h after nocodazole release).
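Throughout, for melting temperature (median over replicates), in situ: HeLa Kyoto cells synchronized by double thymidine or nocodazole block, proteins quantified by TMT10plex mass spectrometry, three independent biological replicates.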
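Throughout, for solubility change mitosis vs G1/S (difference of NP-40 vs SDS log2 ratios): synchronized HeLa Kyoto cells (double thymidine block for G1/S, nocodazole release for mitosis), protein amounts in NP-40 versus SDS lysates quantified by mass spectrometry, three biological replicates.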
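Throughout, for solubility in G1/S (NP-40 vs SDS abundance): HeLa Kyoto cells arrested at G1/S by double thymidine block, proteins quantified by TMT10plex mass spectrometry in mild NP-40 versus SDS extracts, three biological replicates.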
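Throughout, for thermal stability score vs G1/S (z-score of summed log2 fold changes over temperatures): synchronized HeLa Kyoto cells, proteins quantified by TMT10plex mass spectrometry, three biological replicates, mitosis taken 0.5 h after nocodazole release, G1/S directly after double thymidine block.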

As for “MHPRRPDGFDGLGYRGGARDEQGFGGAFPARSFSTGSDLGHWVTTPPDIPGSRNLHWGEKSPPYGVPTTSTPYEGPTEEPFSSGGGGSVQGQSSEQLNRFAGFGIGLASLFTENVLAHPCIVLRRQCQVNYHAQHYHLTPFTVINIMYSFNKTQGPRALWKGMGSTFIVQGVTLGAEGIISEFTPLPREVLHKWSPKQIGEHLLLKSLTYVVAMPFYSASLIETVQSEIIRDNTGILECVKEGIGRVIGMGVPHSKRLLPLLSLIFPTVLHGVLHYIISSVIQKFVLLILKRKTYNSHLAESTSPVQSMLDAYFPELIANFAASLCSDVILYPLETVLHRLHIQGTRTIIDNTDLGYEVLPINTQYEGMRDCINTIRQEEGVFGFYKGFGAVIIQYTLHAAVLQITKIIYSTLLQNNI [SLC25A46]”, the values for the thermal stability score in data set [1] (setting [5]) and in data set [1] (cell cycle stage: mitosis) were -2.69 and -1.76, respectively. Further, in data set [2], the “solubility in G1/S (log2)” value came to 0.0119. Besides, the “solubility change mitosis (log2)” value in data set [3] is -0.0414. Also, the melting temperature in data set [4] (cell cycle stage: G1/S) is 54.2 °C; in data set [4] (cell cycle stage: mitosis), 53.8 °C.
“MHRKKVDNRIRILIENGVAERQRSLFVVVGDRGKDQVVILHHMLSKATVKARPSVLWCYKKELGFSSHRKKRMRQLQKKIKNGTLNIKQDDPFELFIAATNIRYCYYNETHKILGNTFGMCVLQDFEALTPNLLARTVETVEGGGLVVILLRTMNSLKQLYTVTMDVHSRYRTEAHQDVVGRFNERFILSLASCKKCLVIDDQLNILPISSHVATMEALPPQTPDESLGPSDLELRELKESLQDTQPVGVLVDCCKTLDQAKAVLKFIEGISEKTLRSTVALTAARGRGKSAALGLAIAGAVAFGYSNIFVTSPSPDNLHTLFEFVFKGFDALQYQEHLDYEIIQSLNPEFNKAVIRVNVFREHRQTIQYIHPADAVKLGQAELVVIDEAAAIPLPLVKSLLGPYLVFMASTINGYEGTGRSLSLKLIQQLRQQSAQSQVSTTAENKTTTTARLASARTLYEVSLQESIRYAPGDAVEKWLNDLLCLDCLNITRIVSGCPLPEACELYYVNRDTLFCYHKASEVFLQRLMALYVASHYKNSPNDLQMLSDAPAHHLFCLLPPVPPTQNALPEVLAVIQVCLEGEISRQSILNSLSRGKKASGDLIPWTVSEQFQDPDFGGLSGGRVVRIAVHPDYQGMGYGSRALQLLQMYYEGRFPCLEEKVLETPQEIHTVSSEAVSLLEEVITPRKDLPPLLLKLNERPAERLDYLGVSYGLTPRLLKFWKRAGFVPVYLRQTPNDLTGEHSCIMLKTLTDEDEADQGGWLAAFWKDFRRRFLALLSYQFSTFSPSLALNIIQNRNMGKPAQPALSREELEALFLPYDLKRLEMYSRNMVDYHLIMDMIPAISRIYFLNQLGDLALSAAQSALLLGIGLQHKSVDQLEKEIELPSGQLMGLFNRIIRKVVKLFNEVQEKAIEEQMVAAKDVVMEPTMKTLSDDLDEAAKEFQEKHKKEVGKLKSMDLSEYIIRGDDEEWNEVLNKAGPNASIISLKSDKKRKLEAKQEPKQSKKLKNRETKNKKDMKLKRKK [NAT10]”: the values for the thermal stability score in data set [1] (setting [5]) and in data set [1] (cell cycle stage: mitosis) were 1.83 and 1.3, respectively. Further, in data set [2], the “solubility in G1/S (log2)” value is -2.26. Moreover, the “solubility change mitosis (log2)” value in data set [3] was determined as 0.692. Further, the melting temperature is 49.8 °C in data set [4] (cell cycle stage: G1/S) and 52.1 °C in data set [4] (cell cycle stage: mitosis).
Turning to “MIEQQKRKGPELPLVPVKRQRHELLLGAGSGPGAGQQQATPGALLQAGPPRCSSLQAPIMLLSGHEGEVYCCKFHPNGSTLASAGFDRLILLWNVYGDCDNYATLKGHSGAVMELHYNTDGSMLFSASTDKTVAVWDSETGERVKRLKGHTSFVNSCYPARRGPQLVCTGSDDGTVKLWDIRKKAAIQTFQNTYQVLAVTFNDTSDQIISGGIDNDIKVWDLRQNKLTYTMRGHADSVTGLSLSSEGSYLLSNAMDNTVRVWDVRPFAPKERCVKIFQGNVHNFEKNLLRCSWSPDGSKIAAGSADRFVYVWDTTSRRILYKLPGHAGSINEVAFHPDEPIIISASSDKRLYMGEIQ [SNRNP40]”, the figures for the thermal stability score in data set [1] (setting [5]) and in data set [1] (cell cycle stage: mitosis) were -0.469 and -0.465, respectively. Further, the “solubility in G1/S (log2)” value in data set [2] is -1.09. In addition, the “solubility change mitosis (log2)” value in data set [3] was 0.366. Also, the melting temperature in data set [4] (cell cycle stage: G1/S) is 49.9 °C; in data set [4] (cell cycle stage: mitosis), 50.7 °C.
Regarding “MIRNGRGAAGGAEQPGPGGRRAVRVWCDGCYDMVHYGHSNQLRQARAMGDYLIVGVHTDEEIAKHKGPPVFTQEERYKMVQAIKWVDEVVPAAPYVTTLETLDKYNCDFCVHGNDITLTVDGRDTYEEVKQAGRYRECKRTQGVSTTDLVGRMLLVTKAHHSSQEMSSEYREYADSFGKCPGGRNPWTGVSQFLQTSQKIIQFASGKEPQPGETVIYVAGAFDLFHIGHVDFLEKVHRLAERPYIIAGLHFDQEVNHYKGKNYPIMNLHERTLSVLACRYVSEVVIGAPYAVTAELLSHFKVDLVCHGKTEIIPDRDGSDPYQEPKRRGIFRQIDSGSNLTTDLIVQRIITNRLEYEARNQKKEAKELAFLEAARQQAAQPLGERDGDF [PCYT2]”, the thermal stability score in data set [1] (setting [5]) is 0.197; in data set [1] (cell cycle stage: mitosis), 0.0948. Besides, the “solubility in G1/S (log2)” value in data set [2] stood at 0.000861. The “solubility change mitosis (log2)” value in data set [3] is -0.199. For the same sequence, the values for the melting temperature in data set [4] (cell cycle stage: G1/S) and in data set [4] (cell cycle stage: mitosis) were 54.1 °C and 54.9 °C, respectively.
As to “MITSELPVLQDSTNETTAHSDAGSELEETEVKGKRKRGRPGRPPSTNKKPRKSPGEKSRIEAGIRGAGRGRANGHPQQNGEGEPVTLFEVVKLGKSAMQSVVDDWIESYKQDRDIALLDLINFFIQCSGCRGTVRIEMFRNMQNAEIIRKMTEEFDEDSGDYPLTMPGPQWKKFRSNFCEFIGVLIRQCQYSIIYDEYMMDTVISLLTGLSDSQVRAFRHTSTLAAMKLMTALVNVALNLSIHQDNTQRQYEAERNKMIGKRANERLELLLQKRKELQENQDEIENMMNSIFKGIFVHRYRDAIAEIRAICIEEIGVWMKMYSDAFLNDSYLKYVGWTLHDRQGEVRLKCLKALQSLYTNRELFPKLELFTNRFKDRIVSMTLDKEYDVAVEAIRLVTLILHGSEEALSNEDCENVYHLVYSAHRPVAVAAGEFLHKKLFSRHDPQAEEALAKRRGRNSPNGNLIRMLVLFFLESELHEHAAYLVDSLWESSQELLKDWECMTELLLEEPVQGEEAMSDRQESALIELMVCTIRQAAEAHPPVGRGTGKRVLTAKERKTQIDDRNKLTEHFIITLPMLLSKYSADAEKVANLLQIPQYFDLEIYSTGRMEKHLDALLKQIKFVVEKHVESDVLEACSKTYSILCSEEYTIQNRVDIARSQLIDEFVDRFNHSVEDLLQEGEEADDDDIYNVLSTLKRLTSFHNAHDLTKWDLFGNCYRLLKTGIEHGAMPEQIVVQALQCSHYSILWQLVKITDGSPSKEDLLVLRKTVKSFLAVCQQCLSNVNTPVKEQAFMLLCDLLMIFSHQLMTGGREGLQPLVFNPDTGLQSELLSFVMDHVFIDQDEENQSMEGDEEDEANKIEALHKRRNLLAAFSKLIIYDIVDMHAAADIFKHYMKYYNDYGDIIKETLSKTRQIDKIQCAKTLILSLQQLFNELVQEQGPNLDRTSAHVSGIKELARRFALTFGLDQIKTREAVATLHKDGIEFAFKYQNQKGQEYPPPNLAFLEVLSEFSSKLLRQDKKTVHSYLEKFLTEQMMERREDVWLPLISYRNSLVTGGEDDRMSVNSGSSSSKTSSVRNKKGRPPLHKKRVEDESLDNTWLNRTDTMIQTPGPLPAPQLTSTVLRENSRPMGDQIQEPESEHGSEPDFLHNPQMQISWLGQPKLEDLNRKDRTGMNYMKVRTGVRHAVRGLMEEDAEPIFEDVMMSSRSQLEDMNEEFEDTMVIDLPPSRNRRERAELRPDFFDSAAIIEDDSGFGMPMF [STAG1]”, the thermal stability score is -0.0959 in data set [1] (setting [5]) and -1.71 in data set [1] (cell cycle stage: mitosis). The “solubility in G1/S (log2)” value in data set [2] is -0.226. For the same sequence, in data set [3], the “solubility change mitosis (log2)” value came out at 0.0363. In addition, the melting temperature came to 52 °C in data set [4] (cell cycle stage: G1/S) and 50.6 °C in data set [4] (cell cycle stage: mitosis).
